The target of the experiment is mS194 (Spike 194–203 monomer) (Severe acute respiratory syndrome coronavirus 2, UniProt P0DTC2).

Take “fAβ25–35 (GSNKGAIIGLM; Amyloid-beta protein 42 fibrillar; UniProt P05067 696-706, looked up, fragment)”: the “effect of fAβ on mS194 aggregation” value is “acceleration of mS194 aggregation” and the “increase of ThT fluorescence intensity of mS194 versus mS194 alone” value is listed as 4 fold.
Consider fAβ1–42, for which the “effect of fAβ on mS194 aggregation” value is “acceleration of mS194 aggregation”.

The record behind these values is article PMC12412103, “An Amyloidogenic Fragment of the Spike Protein from SARS-CoV‑2 Virus Stimulates the Aggregation and Toxicity of Parkinson’s Disease Protein Alpha-Synuclein” (ACS Chemical Neuroscience, 2025).
